Assays:
[1] = target: 人PD-1蛋白 (human) (UniProt Q15116); assay: BLI (ForteBio), antibody loaded on sensor, PD-1 protein 100-6.25 nM in solution
[2] = target: 人PD-1蛋白 (human) (UniProt Q15116); assay: competition ELISA: human PD-1 coated, antibody titrated together with biotin-labelled PD-L1 (competitor)
[3] = target: PD-1 on GS-J2/PD-1 cells (human) (UniProt Q15116); assay: cell-based or functional assay
PD-1 on GS-J2/PD-1 cells (human), sequence (Q15116 25-288 limits assumed): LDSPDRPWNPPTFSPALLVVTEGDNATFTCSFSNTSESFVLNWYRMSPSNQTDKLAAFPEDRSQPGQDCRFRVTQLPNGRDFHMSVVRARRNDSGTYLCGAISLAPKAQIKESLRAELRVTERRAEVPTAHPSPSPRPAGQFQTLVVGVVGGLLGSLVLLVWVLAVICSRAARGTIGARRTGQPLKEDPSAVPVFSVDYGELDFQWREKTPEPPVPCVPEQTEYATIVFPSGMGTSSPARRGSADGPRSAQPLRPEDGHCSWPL

人PD-1蛋白 (human), sequence (Q15116 25-167 limits assumed): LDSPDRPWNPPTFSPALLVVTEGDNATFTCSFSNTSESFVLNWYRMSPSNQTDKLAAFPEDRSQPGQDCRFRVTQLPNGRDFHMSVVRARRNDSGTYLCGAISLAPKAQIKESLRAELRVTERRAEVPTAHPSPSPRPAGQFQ

| Kd [1] [nM] | EC50 [2] [nM] | koff [1] [s⁻¹] | kon [1] [M⁻¹ s⁻¹] | EC50(nM), luciferase reporter (RLU, 激活百分比) in GS-J2/PD-1 cells co-cultured with GS-C2/PD-L1 cells [3] [nM] | Substance |
| --- | --- | --- | --- | --- | --- |
| 1.63 | 175 | – | – | – | Opdivo (antibody) |
| 1.01 | 110 | 0.000286 | 283000 | 0.142 | Keytruda (antibody) |
